According to IntAct's records for PubMed 15105431:

B1: T-cell surface antigen CD2 (Homo sapiens), P06729 (parent)
chain: MSFPCKFVASFLLIFNVSSKGAVSKEITNALETWGALGQDINLDIPSFQMSDDIDDIKWEKTSDKKKIAQFRKEKETFKEKDTYKLFKNGTLKIKHLKTDDQDIYKVSIYDTKGKNVLEKIFDLKIQERVSKPKISWTCINTTLTCEVMNGTDPELNLYQDGKHLKLSQRVITHKWTTSLSAKFKCTAGNKVSKESSVEPVSCPEKGLDIYLIIGICGGGSLLMVFVALLVFYITKRKKQRSRRNDEELETRAHRVATEERGRKPHQIPASTPQNPATSQHPPPPPGHRSQAPSHRPPPPGHRVQHQPQKRPPAPSGTQVHQQKGPPLPRPRVQPKPPHGAAENSLSPSSN
partner: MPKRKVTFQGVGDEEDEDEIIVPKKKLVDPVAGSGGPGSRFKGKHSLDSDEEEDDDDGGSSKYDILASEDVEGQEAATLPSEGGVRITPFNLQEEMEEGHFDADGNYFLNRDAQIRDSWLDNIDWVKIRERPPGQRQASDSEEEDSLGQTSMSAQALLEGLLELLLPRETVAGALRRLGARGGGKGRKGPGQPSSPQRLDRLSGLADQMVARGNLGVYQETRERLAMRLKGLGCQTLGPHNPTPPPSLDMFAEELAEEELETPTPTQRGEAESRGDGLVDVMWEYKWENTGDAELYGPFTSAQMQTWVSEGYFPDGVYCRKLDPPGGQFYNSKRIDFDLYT

Variants of: B1
Conditions: with cd2b2_human CD2BP2, O95400

Effect of a mutation on the interaction: each site, then its substitutions
P298: N disrupting interaction strength, H decreasing interaction strength, D disrupting interaction strength, M disrupting interaction strength, E disrupting interaction strength
R296: C decreasing interaction strength, L decreasing interaction strength, M decreasing interaction strength, E disrupting interaction strength, A decreasing interaction strength, D disrupting interaction strength
P300: E disrupting interaction strength, M decreasing interaction strength, T disrupting interaction strength, R decreasing interaction strength, K decreasing interaction strength, Y decreasing interaction strength, C decreasing interaction strength, H decreasing interaction strength, N decreasing interaction strength, V disrupting interaction strength, F decreasing interaction strength, I decreasing interaction strength, W decreasing interaction strength, D disrupting interaction strength, A disrupting interaction strength, S disrupting interaction strength, Q decreasing interaction strength, L decreasing interaction strength
H295: D decreasing interaction strength, E decreasing interaction strength
H302: D decreasing interaction strength
S294: E decreasing interaction strength, D decreasing interaction strength
G301: Q decreasing interaction strength, I decreasing interaction strength, S decreasing interaction strength, A disrupting interaction strength, M disrupting interaction strength, N decreasing interaction strength, T disrupting interaction strength, H decreasing interaction strength, V disrupting interaction strength, P decreasing interaction strength, Y decreasing interaction strength, F decreasing interaction strength, K decreasing interaction strength
P299: I decreasing interaction strength, R disrupting interaction strength, H decreasing interaction strength, D disrupting interaction strength, N decreasing interaction strength, E disrupting interaction strength, F decreasing interaction strength, C decreasing interaction strength, Y disrupting interaction strength, K decreasing interaction strength, V disrupting interaction strength, A disrupting interaction strength, Q disrupting interaction strength, T disrupting interaction strength, L disrupting interaction strength
